The record followed here is patent US20190343963A1 (published 2019).

The target of assay [1] is T1, FLAG-tagged human IL-13 (human, UniProt P35225 35-146). The assay can be described thus: competition ELISA; 24 h incubation. (An ELISA detects its analyte on a solid surface through an enzyme-linked reagent.)
Assay [2] concerns the target T1, FLAG-tagged human IL-13. The assay can be described thus: competition ELISA; 1 h incubation.
In assay [3] the target is T1, FLAG-tagged human IL-13. The assay can be described thus: competition ELISA; 1 h incubation. This is another data set of the same source.
The target in assay [4] is T1, FLAG-tagged human IL-13. The assay can be described thus: competition ELISA; 24 h incubation. This is another data set of the same source.

By EC50 is commonly meant the concentration at which the effect is half-maximal.

T1 sequence (P35225 35-146): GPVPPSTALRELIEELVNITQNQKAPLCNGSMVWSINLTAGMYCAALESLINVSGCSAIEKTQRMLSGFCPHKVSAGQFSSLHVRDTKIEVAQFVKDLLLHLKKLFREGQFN

B1: 111 7g11 Alb22 (protein)
chain: TYNGCSSSEQSALAAAASAAQSYVAESLSYLQTHTAATPRYTTWFGSYISSRHSTVLQHYTDMNSNDFSSYSFDCTCTAAGTFAYVYPNRFGTVYLCGAFWQAPTTGTDSQAGTLVHESSHFTRNGGTDDYAYGQAAAQSLATMNPDQAVMNADNHEYFSENNPAQSAAAGGGGSGDLGRRLLEAARAGQDDEVRILMANGADVNAADYFSHTPLHLAARNGHLEIVEVLLQAGADVNASDFAGKTPLHLAANDGHLEIVEVLLQHGADVNAQDIFGRTPADIAADAGHEDIAEVLQRLNGGGGSGGGGSGGGGSGGGGSGGGGSGGGGSGGGSSGLDRRLLEAARAGQDDEVRILMANGADVNATDEFDSTPLHLAARHGHLEIVEVLLQYGADVNAADFIGDTPLHLAAYRGHLEIVEVLLQYGVDVNADDHGDTPLHLAASTGHLEIVEVLLQHGADVNAQDIFGRTAFDISIDNGNEDLAEILQRAA
B1: the EC50 amounted to 0.0036 nM with FLAG-tagged human IL-13 [1] and 0.019 nM with FLAG-tagged human IL-13 [2].

B2: 111 7g11 Alb22 NQ (protein)
chain: ATYNGCSSSEQSALAAAASAAQSYVAESLSYLQTHTAATPRYTTWFGSYISSRHSTVLQHYTDMNSNDFSSYSFDCTCTAAGTFAYVYPNRFGTVYLCGAFWQAPTTGTDSQAGTLVHESSHFTRNGGTDDYAYGQAAAQSLATMNPDQAVMNANNHQYFSENNPAQSAAAGGGGSGDLGRRLLEAARAGQDDEVRILMANGADVNAADYFSHTPLHLAARNGHLEIVEVLLQAGADVNASDFAGKTPLHLAANDGHLEIVEVLLQHGADVNAQDIFGRTPADIAADAGHEDIAEVLQRLNGGGGSGGGGSGGGGSGGGGSGGGGSGGGGSGGGSSGLDRRLLEAARAGQDDEVRILMANGADVNATDEFDSTPLHLAARHGHLEIVEVLLQYGADVNAADFIGDTPLHLAAYRGHLEIVEVLLQYGVDVNADDHGDTPLHLAASTGHLEIVEVLLQHGADVNAQDIFGRTAFDISIDNGNEDLAEILQRAA
In the case of B2, the figures for the EC50 with FLAG-tagged human IL-13 [1] and in the assay with FLAG-tagged human IL-13 [2] were 0.0069 nM and 0.075 nM, respectively.

B3: IL-13 DARPin ΔK (protein)
chain: ALDRRLLEAARAGQDDEVRILMANGADVNARDSYGSTPLHLAAREGHLEIVEVLLQYGADVNAADFIGDTPLHLAAYRGHLEIVEVLLQYGADVNASDITGETPLHLAAQIGHLEIVEVLLQHGADVNAQDIFGRTAFDISIDNGNEDLAEILQRAA
Take B3: the EC50 with FLAG-tagged human IL-13 [3] stood at 13.7 nM; with FLAG-tagged human IL-13 [4], 21.2 nM.

B4: SH111 D154N ΔK (protein)
chain: SSYSFDCTCTAAGTFAYVYPNRFGTVYLCGAFWQAPTTGTDSQAGTLVHESSHFTRNGGTDDYAYGQAAAQSLATMNPDQAVMNANNHEYFSENNPAQSAAAGGGGSGDLGRRLLEAARAGQDDEVRILMANGADVNAADYFSHTPLHLAARNGHLEIVEVLLQYGADVNASDFAGRTPLHLAANDGHLEIVEVLLQHGADVNAQDIFGRTPADIAADNGHEDIAEVLQRAAGGGGSGGGGSGGGGSGGGGSGGGGSGGGGSGGGSSALDRRLLEAARAGQDDEVRILMANGADVNARDSYGSTPLHLAAREGHLEIVEVLLQYGADVNAADFIGDTPLHLAAYRGHLEIVEVLLQYGADVNASDITGETPLHLAAQIGHLEIVEVLLQHGADVNAQDIFGRTAFDISIDNGNEDLAEILQRAA
Consider B4, for which the EC50 with FLAG-tagged human IL-13 [3] was determined as 0.802 nM; in the assay with FLAG-tagged human IL-13 [4], 0.015 nM.

B5: SH111 wt ΔK (protein)
chain: TYNGCSSSEQSALAAAASAAQSYVAESLSYLQTHTAATPRYTTWFGSYISSRHSTVLQHYTDMNSNDFSSYSFDCTCTAAGTFAYVYPNRFGTVYLCGAFWQAPTTGTDSQAGTLVHESSHFTRNGGTDDYAYGQAAAQSLATMNPDQAVMNADNHEYFSENNPAQSAAAGGGGSGDLGRRLLEAARAGQDDEVRILMANGADVNAADYFSHTPLHLAARNGHLEIVEVLLQYGADVNASDFAGRTPLHLAANDGHLEIVEVLLQHGADVNAQDIFGRTPADIAADNGHEDIAEVLQRAAGGGGSGGGGSGGGGSGGGGSGGGGSGGGGSGGGSSALDRRLLEAARAGQDDEVRILMANGADVNARDSYGSTPLHLAAREGHLEIVEVLLQYGADVNAADFIGDTPLHLAAYRGHLEIVEVLLQYGADVNASDITGETPLHLAAQIGHLEIVEVLLQHGADVNAQDIFGRTAFDISIDNGNEDLAEILQRAA
For the molecule B5, the EC50 with FLAG-tagged human IL-13 [3] turned out to be 0.065 nM; with FLAG-tagged human IL-13 [4], 0.002 nM.

B6: SH111 E157Q ΔK (protein)
chain: TYNGCSSSEQSALAAAASAAQSYVAESLSYLQTHTAATPRYTTWFGSYISSRHSTVLQHYTDMNSNDFSSYSFDCTCTAAGTFAYVYPNRFGTVYLCGAFWQAPTTGTDSQAGTLVHESSHFTRNGGTDDYAYGQAAAQSLATMNPDQAVMNADNHQYFSENNPAQSAAAGGGGSGDLGRRLLEAARAGQDDEVRILMANGADVNAADYFSHTPLHLAARNGHLEIVEVLLQYGADVNASDFAGRTPLHLAANDGHLEIVEVLLQHGADVNAQDIFGRTPADIAADNGHEDIAEVLQRAAGGGGSGGGGSGGGGSGGGGSGGGGSGGGGSGGGSSALDRRLLEAARAGQDDEVRILMANGADVNARDSYGSTPLHLAAREGHLEIVEVLLQYGADVNAADFIGDTPLHLAAYRGHLEIVEVLLQYGADVNASDITGETPLHLAAQIGHLEIVEVLLQHGADVNAQDIFGRTAFDISIDNGNEDLAEILQRAA
With B6, the EC50 with FLAG-tagged human IL-13 [3] was 0.08 nM; with FLAG-tagged human IL-13 [4], 0.003 nM.

B7: SH111 NQ ΔK (protein)
chain: TYNGCSSSEQSALAAAASAAQSYVAESLSYLQTHTAATPRYTTWFGSYISSRHSTVLQHYTDMNSNDFSSYSFDCTCTAAGTFAYVYPNRFGTVYLCGAFWQAPTTGTDSQAGTLVHESSHFTRNGGTDDYAYGQAAAQSLATMNPDQAVMNANNHQYFSENNPAQSAAAGGGGSGDLGRRLLEAARAGQDDEVRILMANGADVNAADYFSHTPLHLAARNGHLEIVEVLLQYGADVNASDFAGRTPLHLAANDGHLEIVEVLLQHGADVNAQDIFGRTPADIAADNGHEDIAEVLQRAAGGGGSGGGGSGGGGSGGGGSGGGGSGGGGSGGGSSALDRRLLEAARAGQDDEVRILMANGADVNARDSYGSTPLHLAAREGHLEIVEVLLQYGADVNAADFIGDTPLHLAAYRGHLEIVEVLLQYGADVNASDITGETPLHLAAQIGHLEIVEVLLQHGADVNAQDIFGRTAFDISIDNGNEDLAEILQRAA
Take B7: the EC50 with FLAG-tagged human IL-13 [3] stood at 0.705 nM; with FLAG-tagged human IL-13 [4], 0.027 nM.
